Numbering of substitutions follows the chain as printed.
Tests used:
hiR2-FL-L539A-T7 = molecular target: T1, hiR2-FL-L539A-T7 (human, UniProt Q6PJF5 1-856); assay: FACS on MEF-DKO cells expressing the variant, 3 µg/ml antibody
T1 construct: on MEF-DKO cells
T1 sequence: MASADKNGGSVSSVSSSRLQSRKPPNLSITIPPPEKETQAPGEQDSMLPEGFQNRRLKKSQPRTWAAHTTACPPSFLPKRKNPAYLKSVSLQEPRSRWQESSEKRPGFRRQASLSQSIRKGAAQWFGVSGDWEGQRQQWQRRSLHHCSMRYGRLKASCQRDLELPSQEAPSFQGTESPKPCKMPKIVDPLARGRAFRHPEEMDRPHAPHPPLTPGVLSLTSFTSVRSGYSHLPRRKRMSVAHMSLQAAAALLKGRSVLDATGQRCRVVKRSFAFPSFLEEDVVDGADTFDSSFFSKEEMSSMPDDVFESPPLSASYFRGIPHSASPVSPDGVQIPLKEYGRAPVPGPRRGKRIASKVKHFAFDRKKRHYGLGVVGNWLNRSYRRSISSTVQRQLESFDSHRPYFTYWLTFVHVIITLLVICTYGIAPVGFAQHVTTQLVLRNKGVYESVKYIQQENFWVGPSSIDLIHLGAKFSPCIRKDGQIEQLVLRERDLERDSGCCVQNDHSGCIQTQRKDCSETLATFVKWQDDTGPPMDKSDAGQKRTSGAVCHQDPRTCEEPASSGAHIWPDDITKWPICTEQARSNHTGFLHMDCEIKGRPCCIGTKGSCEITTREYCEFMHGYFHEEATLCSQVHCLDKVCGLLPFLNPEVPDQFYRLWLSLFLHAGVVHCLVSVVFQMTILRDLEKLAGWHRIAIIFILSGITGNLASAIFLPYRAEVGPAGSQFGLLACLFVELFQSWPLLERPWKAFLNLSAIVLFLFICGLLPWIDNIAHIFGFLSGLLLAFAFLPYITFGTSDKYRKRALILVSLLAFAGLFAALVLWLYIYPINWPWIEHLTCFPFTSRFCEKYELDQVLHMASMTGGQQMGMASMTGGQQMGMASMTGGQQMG
Description: (§1) To pellet cells and remove supernatants, the plates were centrifuged at 1,500 rpm and 4° C. for 3 minutes. For primary staining, cells were resuspended in 100 μl per well of either FACS buffer alone (controls) or the purified antibodies 3, 5, 16, 22, 34, 42, 43, 44, 48, and 50 of the invention at 3 μg/ml in FACS buffer and incubated on ice for 1 hour. Afterwards, plates were centrifuged at 1,500 rpm and 4° C. for 3 minutes and washed twice with 200 μl per well of FACS buffer. For secondary staining, cells were spun down and resuspended in 100 μl per well of PE-conjugated goat anti-mouse IgG F(ab′)2 detection fragment (Dianova, Germany) diluted 1:100 in FACS buffer. Protected from light, the cell suspensions were incubated on ice for 1 hour. Plates were then centrifuged at 1,500 rpm and 4° C. for 3 minutes and washed three times with 200 μl per well of FACS buffer. Finally, cells were resuspended in 150 μl per well of FACS buffer and analyzed using a BD Accuri™ C6 Plus flow cytometer (Becton Dickinson, Germany).

hiR2-FL-R543A-T7 = molecular target: T2, hiR2-FL-R543A-T7 (human, UniProt Q6PJF5 1-856); assay: as above
T2 sequence: T1 sequence with A539L, R543A
Description: as §1

B1: antibody 34 (antibody, V domains shown)
VH: QVTLKESGPGILQPSQTLSLTCSFSGFSLSTFSLGVGWIRQSSGKGLEWLAHIWWDDEKYYNPALKSRLTISKDTSKNQVFLKIANVDAADTATYYCARAYYSKSYYALDYWGQGTSVTVSS
VL: DIQMTQSPSSLSASLGERVSLTCRASQEISGYLSWLQQKPDGTIKRLIYAASTLDSGVPKRFSGSRSGSDYSLAISSLESEDFADYYCLQYANFPFTFGSGTKLEIK
notes: mouse IgG, kappa light chain; also called clone #34; purified antibody 34
loss of binding vs wild type (hiR2-FL-L539A-T7): ≥ 60% | loss of binding vs wild type (hiR2-FL-R543A-T7): ≥ 95%

B2: antibody 5 (antibody, V domains shown)
VH: QVTLKESGPGILQPSQTLSLTCSFSGFSLSTFGMGVGWIRQPSGKGLEWLAHIWWDDEKYYNSALKSRLTISKATSKNQAFLKIANVDTADTATYYCARISNYGSNYWYFNVWGTGTTVTVSS
VL: QVVLTQSPALMSASPGEKVTMTCSAGSSVSCMYWYQQKPGSSPRVLIYDTSNLASGVPARFTGSGSGTSYSLTISRMEAEDAASYYCQQWNSYPLTFGAGTKLELK
notes: mouse IgG, kappa light chain; also called clone #5; purified antibody 5
loss of binding vs wild type (hiR2-FL-L539A-T7): ≥ 60% | loss of binding vs wild type (hiR2-FL-R543A-T7): ≥ 60%

B3: antibody 43 (antibody, V domains shown)
VH: B2 VH with T3A, P42S, H52N, E58D, S63P, A74D, T75A, S101G, N111D
VL: QIVLTQSPAIMSASPGERVTMTCSANSRISYMYWYQQKPGSSPRLLIYDTSNLASGVPVRFSGSGSGTSYSLTISRMEAEDAATYNCQQWSSYPLTFGAGTKLELK
notes: mouse IgG, kappa light chain; also called clone #43; purified antibody 43
loss of binding vs wild type (hiR2-FL-L539A-T7): ≥ 95% | loss of binding vs wild type (hiR2-FL-R543A-T7): ≥ 95%

B4: antibody 44 (antibody, V domains shown)
VH: B2 VH with G44E, E58D, S63P, A74D, A80I, A85T, D91E, A98S, S101G, N111D
VL: QIVLTQSPAVMSASPGEKVTMTCTASSSVYYMYWYQQTPGSSPRLLIYDTSNLASGVPVRFSGSGSGTSYSLTISRMEAEDAATYYCQQWNTYPLTFGAGTKLELK
notes: mouse IgG, kappa light chain; also called clone #44; purified antibody 44
loss of binding vs wild type (hiR2-FL-L539A-T7): ≥ 60% | loss of binding vs wild type (hiR2-FL-R543A-T7): ≥ 95%

B5: antibody 42 (antibody, V domains shown)
VH: B2 VH with F24L, M34R, S63P, A74D, A80V, K83R, S101Q, N111D
VL: B3 VL with Q1L, R18K, S24G, N26T, Y33F, L45V, M77V, A82V, N86Y, S91N
notes: mouse IgG, kappa light chain; also called clone #42; purified antibody 42
loss of binding vs wild type (hiR2-FL-L539A-T7): ≥ 60% | loss of binding vs wild type (hiR2-FL-R543A-T7): ≥ 60%

B6: antibody 22 (antibody, V domains shown)
VH: B2 VH with A80V
VL: B2 VL with C31Y, S84T
notes: mouse IgG, kappa light chain; also called clone #22; purified antibody 22
loss of binding vs wild type (hiR2-FL-L539A-T7): ≥ 95% | loss of binding vs wild type (hiR2-FL-R543A-T7): ≥ 60%

B7: antibody 3 (antibody, V domains shown)
VH: QVTLKESGPGILQPSQTLSLTCSFSGFSLTTFAMGIGWVRQPSGKGLEWLAHIWWDGEKYNNPVLKSRLTISKDTSKNQVFLRIANVDTPDTATYYCARISSIYYIIDNWGQGTSVTVSS
VL: DIVLTQSPATLSVTPGHSVSLSCRASQSISNNLHWYQKKSHESPRLLIKYVSQSISGIPSRFSGSGSGTDFTLSINSVETEDFGMYFCQQSYNWPLTFGAGTKLELK
notes: mouse IgG, kappa light chain; also called clone #3; purified antibody 3
loss of binding vs wild type (hiR2-FL-L539A-T7): ≥ 30% | loss of binding vs wild type (hiR2-FL-R543A-T7): ≥ 30%

B8: antibody 50 (antibody, V domains shown)
VH: QVQLQQSGAELVRPGASVKVSCKASGYAFSNYLIEWVKQRPGQGLEWIGVINPGSGFTKYNEKFKGKATLTADKSSSTAYMQLSSLTSEDSAVYFCARGLYRAMDYWGQGTSVTVSS
VL: DIQMTQSPASQSASLGESVTITCLASQTIGTWLAWYQQKPGKSPQLLIYAAASLADGVPSRFSGGGSGTKFSFKISSLQAEDFVNYYCQQIYSTPYTFGGGTKLEIK
notes: mouse IgG, kappa light chain; also called clone #50; purified antibody 50
loss of binding vs wild type (hiR2-FL-L539A-T7): ≥ 30%
